The record followed here is patent US12679878B2, “CRF2 receptor agonists and their use in therapy” (SANOFI, priority 2020, dated 2026).

Starred links: 1 amine or outer side, 2 acyl side, 3 side chain; linkers in the order of their positions; H or OH if unused. Non-standard residues stand in square brackets, D forms with d. Groups on a side chain read outwards from the residue. No end group written: not given here. *: point of attachment. C20 diacid = O=C(O)CCCCCCCCCCCCCCCCCCC(=O)*; C18 diacid = O=C(O)CCCCCCCCCCCCCCCCC(=O)*; γGlu = O=C(O)[C@H](CCC(=O)[*:2])N[*:1]; AEEA = NCCOCCOCC(=O)O; Aib = CC(C)(N)C(=O)O

The target of one test is rat CRF2R α receptor (rat, UniProt P47866 20-411). Nature of the test: cell-based or functional assay.
Test [1] has as its target T1, anti-target CRF1R receptor (UniProt P34998 24-415, limits assumed).
T1 sequence (looked up): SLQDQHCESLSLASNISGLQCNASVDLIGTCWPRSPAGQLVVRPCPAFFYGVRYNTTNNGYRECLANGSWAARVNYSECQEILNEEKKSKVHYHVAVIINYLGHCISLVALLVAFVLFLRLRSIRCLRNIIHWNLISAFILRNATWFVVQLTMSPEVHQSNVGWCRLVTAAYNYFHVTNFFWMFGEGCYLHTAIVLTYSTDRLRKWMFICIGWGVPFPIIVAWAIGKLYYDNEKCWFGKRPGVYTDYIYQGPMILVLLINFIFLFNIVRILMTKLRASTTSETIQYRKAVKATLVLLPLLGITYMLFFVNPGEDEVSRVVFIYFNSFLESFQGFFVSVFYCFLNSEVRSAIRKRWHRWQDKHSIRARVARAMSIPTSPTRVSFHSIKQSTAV
Put plainly: cell-based or functional assay.

Chain of rat CRF2R α receptor (P47866 20-411): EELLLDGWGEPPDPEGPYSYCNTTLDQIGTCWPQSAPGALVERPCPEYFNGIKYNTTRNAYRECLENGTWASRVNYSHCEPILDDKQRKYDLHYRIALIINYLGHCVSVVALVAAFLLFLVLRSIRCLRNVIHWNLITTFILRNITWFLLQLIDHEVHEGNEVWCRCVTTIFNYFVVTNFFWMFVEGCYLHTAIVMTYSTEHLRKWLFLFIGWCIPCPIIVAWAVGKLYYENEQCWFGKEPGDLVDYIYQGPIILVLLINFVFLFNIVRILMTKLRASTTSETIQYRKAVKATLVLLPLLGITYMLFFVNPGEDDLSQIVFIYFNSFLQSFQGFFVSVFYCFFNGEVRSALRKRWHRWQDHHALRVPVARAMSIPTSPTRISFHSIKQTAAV

B1: peptide of SEQ ID NO: 83 (peptide)
peptide: IVLSLD[dV]PIGLK([AEEA-AEEA-γGlu-C18 diacid])QILLKQERQKK[Aib]REQAETNKRILERV-NH2
modifications: N-terminus assumed
SMILES: CC[C@H](C)[C@H](N)C(=O)N[C@H](C(=O)N[C@@H](CC(C)C)C(=O)N[C@@H](CO)C(=O)N[C@@H](CC(C)C)C(=O)N[C@@H](CC(=O)O)C(=O)N[C@@H](C(=O)N1CCC[C@H]1C(=O)N[C@H](C(=O)NCC(=O)N[C@@H](CC(C)C)C(=O)N[C@@H](CCCCNC(=O)COCCOCCNC(=O)COCCOCCNC(=O)CC[C@H](NC(=O)CCCCCCCCCCCCCCCCC(=O)O)C(=O)O)C(=O)N[C@@H](CCC(N)=O)C(=O)N[C@H](C(=O)N[C@@H](CC(C)C)C(=O)N[C@@H](CC(C)C)C(=O)N[C@@H](CCCCN)C(=O)N[C@@H](CCC(N)=O)C(=O)N[C@@H](CCC(=O)O)C(=O)N[C@@H](CCCNC(=N)N)C(=O)N[C@@H](CCC(N)=O)C(=O)N[C@@H](CCCCN)C(=O)N[C@@H](CCCCN)C(=O)NC(C)(C)C(=O)N[C@@H](CCCNC(=N)N)C(=O)N[C@@H](CCC(=O)O)C(=O)N[C@@H](CCC(N)=O)C(=O)N[C@@H](C)C(=O)N[C@@H](CCC(=O)O)C(=O)N[C@H](C(=O)N[C@@H](CC(N)=O)C(=O)N[C@@H](CCCCN)C(=O)N[C@@H](CCCNC(=N)N)C(=O)N[C@H](C(=O)N[C@@H](CC(C)C)C(=O)N[C@@H](CCC(=O)O)C(=O)N[C@@H](CCCNC(=N)N)C(=O)N[C@H](C(N)=O)C(C)C)[C@@H](C)CC)[C@@H](C)O)[C@@H](C)CC)[C@@H](C)CC)C(C)C)C(C)C
As to B1, the “EC50 [nM], 0% HSA (cAMP, A7R5 cells)” value with rat CRF2R α receptor was determined as 1.83 nM. Further, in test [1], the “EC50[nM] 0% HSA (cAMP, CRF1R-overexpression CHO cells)” value (from here on “EC50[nM] 0% HSA”) was > 1000 nM and the “Emax (%) (cAMP, CRF1R-overexpression CHO cells)” value (from here on “Emax (%)”) is 7.51%.

B2: peptide of SEQ ID NO: 85 (peptide)
peptide: IVLSLDVPIKLK([AEEA-AEEA-γGlu-C18 diacid])QILLKQERQKKQREQAETNKQILAQV-NH2
modifications: N-terminus assumed
SMILES: CC[C@H](C)[C@H](N)C(=O)N[C@H](C(=O)N[C@@H](CC(C)C)C(=O)N[C@@H](CO)C(=O)N[C@@H](CC(C)C)C(=O)N[C@@H](CC(=O)O)C(=O)N[C@H](C(=O)N1CCC[C@H]1C(=O)N[C@H](C(=O)N[C@@H](CCCCN)C(=O)N[C@@H](CC(C)C)C(=O)N[C@@H](CCCCNC(=O)COCCOCCNC(=O)COCCOCCNC(=O)CC[C@H](NC(=O)CCCCCCCCCCCCCCCCC(=O)O)C(=O)O)C(=O)N[C@@H](CCC(N)=O)C(=O)N[C@H](C(=O)N[C@@H](CC(C)C)C(=O)N[C@@H](CC(C)C)C(=O)N[C@@H](CCCCN)C(=O)N[C@@H](CCC(N)=O)C(=O)N[C@@H](CCC(=O)O)C(=O)N[C@@H](CCCNC(=N)N)C(=O)N[C@@H](CCC(N)=O)C(=O)N[C@@H](CCCCN)C(=O)N[C@@H](CCCCN)C(=O)N[C@@H](CCC(N)=O)C(=O)N[C@@H](CCCNC(=N)N)C(=O)N[C@@H](CCC(=O)O)C(=O)N[C@@H](CCC(N)=O)C(=O)N[C@@H](C)C(=O)N[C@@H](CCC(=O)O)C(=O)N[C@H](C(=O)N[C@@H](CC(N)=O)C(=O)N[C@@H](CCCCN)C(=O)N[C@@H](CCC(N)=O)C(=O)N[C@H](C(=O)N[C@@H](CC(C)C)C(=O)N[C@@H](C)C(=O)N[C@@H](CCC(N)=O)C(=O)N[C@H](C(N)=O)C(C)C)[C@@H](C)CC)[C@@H](C)O)[C@@H](C)CC)[C@@H](C)CC)C(C)C)C(C)C
B2: the “EC50 [nM], 0% HSA (cAMP, A7R5 cells)” value with rat CRF2R α receptor was 0.73 nM. Further, in test [1], the “EC50[nM] 0% HSA” value is > 1000 nM and the “Emax (%)” value came out at 0.14%.

B3: peptide of SEQ ID NO: 86 (peptide)
peptide: IVLSLDVPIKLK([AEEA-AEEA-γGlu-C18 diacid])QILLKQERQKKQREQAKTNKQILAQV-NH2
modifications: N-terminus assumed
SMILES: CC[C@H](C)[C@H](N)C(=O)N[C@H](C(=O)N[C@@H](CC(C)C)C(=O)N[C@@H](CO)C(=O)N[C@@H](CC(C)C)C(=O)N[C@@H](CC(=O)O)C(=O)N[C@H](C(=O)N1CCC[C@H]1C(=O)N[C@H](C(=O)N[C@@H](CCCCN)C(=O)N[C@@H](CC(C)C)C(=O)N[C@@H](CCCCNC(=O)COCCOCCNC(=O)COCCOCCNC(=O)CC[C@H](NC(=O)CCCCCCCCCCCCCCCCC(=O)O)C(=O)O)C(=O)N[C@@H](CCC(N)=O)C(=O)N[C@H](C(=O)N[C@@H](CC(C)C)C(=O)N[C@@H](CC(C)C)C(=O)N[C@@H](CCCCN)C(=O)N[C@@H](CCC(N)=O)C(=O)N[C@@H](CCC(=O)O)C(=O)N[C@@H](CCCNC(=N)N)C(=O)N[C@@H](CCC(N)=O)C(=O)N[C@@H](CCCCN)C(=O)N[C@@H](CCCCN)C(=O)N[C@@H](CCC(N)=O)C(=O)N[C@@H](CCCNC(=N)N)C(=O)N[C@@H](CCC(=O)O)C(=O)N[C@@H](CCC(N)=O)C(=O)N[C@@H](C)C(=O)N[C@@H](CCCCN)C(=O)N[C@H](C(=O)N[C@@H](CC(N)=O)C(=O)N[C@@H](CCCCN)C(=O)N[C@@H](CCC(N)=O)C(=O)N[C@H](C(=O)N[C@@H](CC(C)C)C(=O)N[C@@H](C)C(=O)N[C@@H](CCC(N)=O)C(=O)N[C@H](C(N)=O)C(C)C)[C@@H](C)CC)[C@@H](C)O)[C@@H](C)CC)[C@@H](C)CC)C(C)C)C(C)C
As for B3, the “EC50 [nM], 0% HSA (cAMP, A7R5 cells)” value in the test with rat CRF2R α receptor stood at 0.69 nM. Moreover, in test [1], the “EC50[nM] 0% HSA” value is > 1000 nM and the “Emax (%)” value was 15.9%.

B4: peptide of SEQ ID NO: 80 (peptide)
peptide: IVLSLDVPTKLK([AEEA-AEEA-γGlu-C20 diacid])QILLEQERQKKQREQAETN[Aib]QILAQV-NH2
modifications: N-terminus assumed
SMILES: CC[C@H](C)[C@H](N)C(=O)N[C@H](C(=O)N[C@@H](CC(C)C)C(=O)N[C@@H](CO)C(=O)N[C@@H](CC(C)C)C(=O)N[C@@H](CC(=O)O)C(=O)N[C@H](C(=O)N1CCC[C@H]1C(=O)N[C@H](C(=O)N[C@@H](CCCCN)C(=O)N[C@@H](CC(C)C)C(=O)N[C@@H](CCCCNC(=O)COCCOCCNC(=O)COCCOCCNC(=O)CC[C@H](NC(=O)CCCCCCCCCCCCCCCCCCC(=O)O)C(=O)O)C(=O)N[C@@H](CCC(N)=O)C(=O)N[C@H](C(=O)N[C@@H](CC(C)C)C(=O)N[C@@H](CC(C)C)C(=O)N[C@@H](CCC(=O)O)C(=O)N[C@@H](CCC(N)=O)C(=O)N[C@@H](CCC(=O)O)C(=O)N[C@@H](CCCNC(=N)N)C(=O)N[C@@H](CCC(N)=O)C(=O)N[C@@H](CCCCN)C(=O)N[C@@H](CCCCN)C(=O)N[C@@H](CCC(N)=O)C(=O)N[C@@H](CCCNC(=N)N)C(=O)N[C@@H](CCC(=O)O)C(=O)N[C@@H](CCC(N)=O)C(=O)N[C@@H](C)C(=O)N[C@@H](CCC(=O)O)C(=O)N[C@H](C(=O)N[C@@H](CC(N)=O)C(=O)NC(C)(C)C(=O)N[C@@H](CCC(N)=O)C(=O)N[C@H](C(=O)N[C@@H](CC(C)C)C(=O)N[C@@H](C)C(=O)N[C@@H](CCC(N)=O)C(=O)N[C@H](C(N)=O)C(C)C)[C@@H](C)CC)[C@@H](C)O)[C@@H](C)CC)[C@@H](C)O)C(C)C)C(C)C
Turning to B4, the “EC50 [nM], 0% HSA (cAMP, A7R5 cells)” value in the test with rat CRF2R α receptor turned out to be 5.2 nM. In test [1], the “EC50[nM] 0% HSA” value was > 1000 nM and the “Emax (%)” value was 12.7%.

B5: peptide of SEQ ID NO: 79 (peptide)
peptide: IVLSLDVPIKLK([AEEA-AEEA-γGlu-C18 diacid])QILLEQEKQK[Aib]QREQAETNKQILAQV-NH2
modifications: N-terminus assumed
SMILES: CC[C@H](C)[C@H](N)C(=O)N[C@H](C(=O)N[C@@H](CC(C)C)C(=O)N[C@@H](CO)C(=O)N[C@@H](CC(C)C)C(=O)N[C@@H](CC(=O)O)C(=O)N[C@H](C(=O)N1CCC[C@H]1C(=O)N[C@H](C(=O)N[C@@H](CCCCN)C(=O)N[C@@H](CC(C)C)C(=O)N[C@@H](CCCCNC(=O)COCCOCCNC(=O)COCCOCCNC(=O)CC[C@H](NC(=O)CCCCCCCCCCCCCCCCC(=O)O)C(=O)O)C(=O)N[C@@H](CCC(N)=O)C(=O)N[C@H](C(=O)N[C@@H](CC(C)C)C(=O)N[C@@H](CC(C)C)C(=O)N[C@@H](CCC(=O)O)C(=O)N[C@@H](CCC(N)=O)C(=O)N[C@@H](CCC(=O)O)C(=O)N[C@@H](CCCCN)C(=O)N[C@@H](CCC(N)=O)C(=O)N[C@@H](CCCCN)C(=O)NC(C)(C)C(=O)N[C@@H](CCC(N)=O)C(=O)N[C@@H](CCCNC(=N)N)C(=O)N[C@@H](CCC(=O)O)C(=O)N[C@@H](CCC(N)=O)C(=O)N[C@@H](C)C(=O)N[C@@H](CCC(=O)O)C(=O)N[C@H](C(=O)N[C@@H](CC(N)=O)C(=O)N[C@@H](CCCCN)C(=O)N[C@@H](CCC(N)=O)C(=O)N[C@H](C(=O)N[C@@H](CC(C)C)C(=O)N[C@@H](C)C(=O)N[C@@H](CCC(N)=O)C(=O)N[C@H](C(N)=O)C(C)C)[C@@H](C)CC)[C@@H](C)O)[C@@H](C)CC)[C@@H](C)CC)C(C)C)C(C)C
For B5, in the test with rat CRF2R α receptor, the “EC50 [nM], 0% HSA (cAMP, A7R5 cells)” value came out at 3.99 nM. Further, in test [1], the “EC50[nM] 0% HSA” value is > 1000 nM and the “Emax (%)” value turned out to be 8.74%.
